In patent US20140148396A1 one finds reduction of MMP-9 in mice compared to the IgG control data, which are given here for one substance.

The target in this assay is EMMPRIN in mouse aortic endothelial cells (MAEC) (mouse) (UniProt P18572). As to the kind of experiment: cell-based or functional assay.

For the substance “anti-EMMPRIN antibody (rat-anti-mouse-EMMPRIN, OX114 clone)”, the reduction of MMP-9 in mice compared to the IgG control is more than 50%.
